According to patent publication US20100136663:

Biological target: T1, ZFP-CRP Del 180 (CRP 1-180 fused to human zinc fingers ZFP1/ZFP2) (Escherichia coli / Homo sapiens) (UniProt P0ACJ8)
T1 sequence: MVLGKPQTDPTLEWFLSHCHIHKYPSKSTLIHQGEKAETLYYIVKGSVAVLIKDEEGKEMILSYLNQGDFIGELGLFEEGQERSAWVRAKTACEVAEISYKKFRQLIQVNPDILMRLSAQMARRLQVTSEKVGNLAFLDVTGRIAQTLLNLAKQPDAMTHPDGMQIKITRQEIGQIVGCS
Experiment: cell_activity

ATCGATAAGCTTGCGGCGGGGGCGGCGGGGACTCCCCATCCCCCTGTTGACAATTAATCATCGGCTCGTATAATGTGTGGAATTGTGAGCGGATAACAATTTCACACAGGAAACAGGATCAAATTATGCCTGTCGAC (double strand)
activity (fold activation) (E. coli EGFP reporter without IPTG, 2-fold with 1 mM IPTG, assignment of SEQ 7 to pEGFP-A inferred): 3

ATCGATAAGCTTACTCCCCATCCCCCTGTTGACAATTAATCATCGGCTCGTATAATGTGTGGAATTGTGAGCGGATAACAATTTCGCGGCGGGGGCGGCGGGGACACAGGAAACAGGATCAAATTATGCCTGTCGAC (double strand)
activity (fold repression) (E. coli EGFP reporter with 1 mM IPTG, assignment of SEQ 8 to pEGFP-R inferred): 1.5
